Source: patent US8796209B2, “Compositions and methods related to anti-FGF agents” (The Regents of the University of California, priority 2005, dated 2014)
Entries after “also recorded” stand apart in the source; their conditions may differ.

Columns and labels:
[1] = test system: Human microvascular endothelial (HMVE) cells; assay: Tube formation by endothelial cells on Matrigel; format: cell-based; settings: 24 h
Procedure: Digital images were taken by using a fluorescent microscope and analyzed by using ImageJ, using human microvascular endothelial (HMVE) cells added to the matrix-coated wells of 96-well plates at 2×10^4 cells/well in medium M-131 plus 0.1% hydrocortisone and 0.1% FBS for. Cells were incubated for 24 h in the presence of wt or mutant FGF. To enhance images, calcein AM was added to the medium.
Wells of 96-well FluoroNunc black plates were coated with 50 μl of matrigel basement membrane matrix (BD Bioscience) and allowed to gel at 37° C. for 30 min. Endothelial cells growing on the tissue culture plastic were trypsinized, washed, and added to the matrix-coated wells at 2×10^4 cells/well. Plating was performed in medium M-131 plus 0.1% hydrocortisone and 0.1% FBS for Human microvascular endothelial (HMVE) cells. Cells were incubated for 24 h in the presence of wt or mutant FGF. To enhance images, calcein AM (Invitrogen) was added to the medium (10 μg/ml) and incubated for 15 min at 37° C. Digital images were taken by using a fluorescent microscope and analyzed by using ImageJ. (FIGS. 9A and 9B).

[2] = Heparin binding assay (heparin sepharose column, NaCl step elution); settings: for Heparin binding: phenotype of FGF-1 mutants, Table 2
Procedure: (§1) Partially purified wt and mutant FGF1 in 100 mM NaCl and 50 mM Tris (pH 7.4) were applied to a heparin sepharose column (1 ml bed volume). The column was washed with the same buffer and bound proteins were eluted with a stepwise increase in NaCl concentration from 0.1 to 1.2 M. Fractions were analyzed by SDS-polyacrylamide gradient gel electrophoresis. Proteins were visualized by Coomassie Brilliant Blue staining.
as §1, with “Wild type” for “Partially purified wt”, “FGF-1” for “FGF1”, “Tris/HCI” for “Tris”, “to” for “to a”, “with” for “with the”, “buffer,” for “buffer”

M21 human melanoma cells = assay: Chemoresistance: cell viability with etoposide (MTS); format: cell-based; settings: etoposide 0.1-100 μM, 48 h
Procedure: In FIG. 10, results are provided showing suppression of FGF-induced drug resistance in M21 melanoma cells. Resistance of melanoma cells was to etoposide-induced apoptosis. M21 human melanoma cells were cultured in DMEM with 1% FBS for 48 h, and then treated with etoposide (0.1-100 μM) in the presence or absence of wt or mutant FGF for 48 h, with cell viability determined.
Cells were plated on well of 96-well tissue culture plates and serum-starved for 48-72 h in DMEM supplemented with 0-1% FBS. Then cells were treated with etoposide (up to 100 μM) and wt or mutant FGF for additional 24-48 h. Cell viability was determined using CellTiter 96 MTS assay (Promega) and caspases 3/7 activity was determined by using Caspase-Glo 3/7 assay kit (Promega). FIGS. 10 and 11.

integrin αvβ3 = target: T1, integrin αvβ3 (Homo sapiens, UniProt P05106+P06756); assay: Soluble integrin binding assay (ELISA-type), soluble αvβ3 on immobilized FGF; settings: for effect of the mutation on binding of soluble αvβ3 to FGF-1: mutant coated to plate; for αvβ3 binding: phenotype of FGF-1 mutants, Table 2
T1 construct: using the soluble αv and β3 expression constructs provided by Tim Springer; made in house; host or cells: CHO K1
T1 sequence (P06756 31-992 limits assumed): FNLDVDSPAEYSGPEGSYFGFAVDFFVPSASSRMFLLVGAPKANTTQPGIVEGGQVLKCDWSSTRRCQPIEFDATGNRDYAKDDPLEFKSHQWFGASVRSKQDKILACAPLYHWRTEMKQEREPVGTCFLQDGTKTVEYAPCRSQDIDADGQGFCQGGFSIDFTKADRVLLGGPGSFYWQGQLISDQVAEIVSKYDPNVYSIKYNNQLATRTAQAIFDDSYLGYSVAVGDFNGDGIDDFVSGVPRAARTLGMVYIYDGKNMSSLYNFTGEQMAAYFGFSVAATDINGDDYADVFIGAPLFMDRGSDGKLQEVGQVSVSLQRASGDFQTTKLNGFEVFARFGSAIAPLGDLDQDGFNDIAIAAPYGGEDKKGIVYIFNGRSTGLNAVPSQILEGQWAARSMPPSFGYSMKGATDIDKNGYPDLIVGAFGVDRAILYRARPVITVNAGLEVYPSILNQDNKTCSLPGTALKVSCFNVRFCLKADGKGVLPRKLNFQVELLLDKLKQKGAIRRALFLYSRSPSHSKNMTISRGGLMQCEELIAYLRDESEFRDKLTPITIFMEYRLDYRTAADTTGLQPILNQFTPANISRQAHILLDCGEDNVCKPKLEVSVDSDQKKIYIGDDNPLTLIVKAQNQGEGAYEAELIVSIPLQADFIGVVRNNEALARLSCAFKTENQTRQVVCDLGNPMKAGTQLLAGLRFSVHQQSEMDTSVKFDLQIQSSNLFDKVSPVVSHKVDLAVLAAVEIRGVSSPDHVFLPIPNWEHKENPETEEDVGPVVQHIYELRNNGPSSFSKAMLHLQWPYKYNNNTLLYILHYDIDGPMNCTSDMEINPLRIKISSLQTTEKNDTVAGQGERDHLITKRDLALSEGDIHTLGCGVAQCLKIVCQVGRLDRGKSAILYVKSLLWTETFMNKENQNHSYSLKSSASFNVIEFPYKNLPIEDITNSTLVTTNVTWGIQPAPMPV
T1 sequence (P05106 27-718 limits assumed): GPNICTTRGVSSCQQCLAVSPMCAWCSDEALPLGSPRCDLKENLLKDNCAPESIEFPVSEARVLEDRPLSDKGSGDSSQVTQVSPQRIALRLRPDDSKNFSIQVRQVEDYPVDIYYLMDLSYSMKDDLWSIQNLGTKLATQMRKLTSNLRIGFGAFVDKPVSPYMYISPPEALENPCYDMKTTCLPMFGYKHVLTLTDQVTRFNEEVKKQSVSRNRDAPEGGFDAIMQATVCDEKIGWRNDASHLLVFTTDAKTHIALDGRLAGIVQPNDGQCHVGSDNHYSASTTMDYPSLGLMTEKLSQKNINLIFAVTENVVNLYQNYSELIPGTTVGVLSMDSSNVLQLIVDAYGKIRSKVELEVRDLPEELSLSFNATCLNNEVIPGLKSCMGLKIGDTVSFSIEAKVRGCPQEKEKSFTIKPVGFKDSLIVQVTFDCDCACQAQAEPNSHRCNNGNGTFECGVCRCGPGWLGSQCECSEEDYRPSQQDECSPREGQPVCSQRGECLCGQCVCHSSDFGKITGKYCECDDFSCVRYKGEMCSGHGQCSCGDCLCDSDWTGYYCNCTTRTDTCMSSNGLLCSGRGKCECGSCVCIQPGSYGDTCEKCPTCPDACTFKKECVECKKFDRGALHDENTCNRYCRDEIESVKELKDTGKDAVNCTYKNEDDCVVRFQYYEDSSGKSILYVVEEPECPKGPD
Procedure: Wells of 96-well microtiter plates were coated with 10 μg/ml FGF-1 or FGF-2 and remaining protein binding sites were blocked with 1 mg/ml BSA. Recombinant soluble αvβ3 (50 μl/well at 5 μg/ml in Hepes-Tyrode buffer supplemented with 1 mM MnCl2) was added to wells and incubated for 1 h at room temperature. Soluble αvβ3 was incubated with 10 μg/ml 7E3 (white bar) or mouse IgG (black bar) for 10 min on ice prior to adding to the wells. BSA (circle) was used as a negative control. Data is shown as means+/−SD of triplicate experiments.
FGF-1 (10 μg/m) was heat-treated at indicated temperature for 10 min prior to immobilization. Binding of soluble αvβ3 was determined as described in FIG. 1. Data is shown as percent binding+/−SD of triplicate experiments.
Amino acid residues in the integrin-binding site or in the FGFR-binding site were mutated individually or in groups. Wild-type (diamond), R50E (open square), N33A (closed square), 4xE (circle), 3xA (triangle) were coated to a plastic plate various concentration as indicated and the binding of soluble αvβ3 was determined as described in FIG. 2. BSA (cross) was used as a negative control. […] “4xE” represents the K127E/K128E/K133E/R134E mutant. “3xA” represents the E102A/Y109A/Q110A mutant.
Binding assays were performed as previously described (Takagi et al., 2001). Native or heat-denatured FGF-1 in 0.1 M carbonate buffer, pH 9.4, were incubated in a polystyrene 96-well non-tissue culture plates surface overnight at 4° C. Unbound FGF-1 was removed, and 200 μl of 0.1% bovine serum albumin in PBS was added and incubated for 60 min at room temperature. The wells were washed with PBS and soluble integrin αvβ3 in 50 μl in Hepes-Tyrode buffer supplemented with 1 mM Mn^2+ were added to the wells and incubated at room temperature for 60 min. After non-bound soluble integrin were removed by rinsing the wells with the same buffer. Horseradish peroxidase (HRP) conjugated anti His-tag mouse IgG was added to well and incubated 60 min. Non-bound antibodies were removed by rinsing the wells with the same buffer, bound integrins were quantified by measuring the absorbance of 450 nm developed from adding the substrate (3,3′,5,5′-tetramethylbenzidine) of HRP unbound protein was aspirated, and the wells were washed with PBS three times.

FRS2α = assay: FRS2 phosphorylation, western blot; format: cell-based; settings: mouse fibroblasts
Procedure: The same cell lysates as described above were analyzed by western blotting with anti-phospho FRS2 or anti-FRS2, where; 1: Wild type; 2: R50E; 3: 4xE; 4: 3xA; 5: None; and 6: FBS.
This experiment tested how the FGF1 mutations affect phosphorylation of FRS2α.

Balb 3T3 cells = assay: Scratch wound healing assay; format: cell-based, mouse; settings: for Wound healing: phenotype of FGF-1 mutants, Table 2; for effect on migration of Balb3T3 cells in scratch wound healing assays: with 5 μg/ml heparin, 24 h
Procedure: Confluent serum-starved Balb 3T3 cells were scratched. After washing with serum-free medium, cells were incubated in DMEM containing 5 μg/ml heparin and 5 ng/ml wild-type or mutant FGF-1s for 24 h at 37° C. Controls contain medium alone (none) or medium containing 10% fetal calf serum (FCS).
Balb 3T3 cells were plated into 6-well cell culture plate. Cells were allowed to grow in DMEM containing 10% fetal calf serum for overnight, and then cells were washed with serum-free medium and starved for 24 h. A scratch was made across the cell layer using a pipette tip. After washing with serum-free medium twice, DMEM containing 10 ng/ml wild type or mutant FGF-1 together with 5 μg/ml heparin were added to cells. Plates were photographed at 0, 6, 12, and 24 h.

| effect of the mutation on heparin binding to FGF-1 [2] | Heparin binding [2] | effect of the mutation on binding of soluble αvβ3 to FGF-1 (integrin αvβ3) | αvβ3 binding (integrin αvβ3) | binding of soluble αvβ3 to the immobilized protein (integrin αvβ3; coated at 10 μg/ml, soluble αvβ3 5 μg/ml, 1 mM MnCl2) | binding of soluble αvβ3 to heat-denatured protein (integrin αvβ3; heat-denatured, heat-treated 10 min before immobilization) | Molecule | tube formation by endothelial cells on matrigel [1] | effect on apoptosis induced by etoposide (M21 human melanoma cells) | FRS2α phosphorylation (FRS2α) | Wound healing (Balb 3T3 cells) | effect on migration of Balb3T3 cells in scratch wound healing assays (Balb 3T3 cells) |
| --- | --- | --- | --- | --- | --- | --- | --- | --- | --- | --- | --- |
|  | Normal |  | Normal | bound | did not bind | Wild type: human FGF-1 (acidic FGF), wild type, expressed in E. coli | enhanced |  | induced | Normal |  |
| completely blocked | Low | effectively blocked | Low |  |  | 4xE: FGF-1 mutant, Lys127/Lys128/Lys133/Arg134 simultaneously to Glu (protein) FNLPPGNYKKPKLLYCSNGGHFLRILPDGTVDGTRDRSDQHIQLQLSAESVGEVYIKSTETGQYLAMDTDGLLYGSQTPNEECLFLERLEENHYNTYISKKHAEKNWFVGLEENGSCEEGPRTHYGQKAILFLPLPVSSD |  |  | abolished | Low | effectively blocked |
| did not | Normal | did not affect | Normal |  |  | 3xA: FGF-1 mutant, three residues in the FGFR binding site (Glu102/Tyr109/Asn110) to Ala (protein) FNLPPGNYKKPKLLYCSNGGHFLRILPDGTVDGTRDRSDQHIQLQLSAESVGEVYIKSTETGQYLAMDTDGLLYGSQTPNEECLFLARLEENHAATYISKKHAEKNWFVGLKKNGSCKRGPRTHYGQKAILFLPLPVSSD |  |  | abolished | Low | effectively blocked |

| Molecule | effect of the mutation on heparin binding to FGF-1 [2] | Heparin binding [2] | effect of the mutation on binding of soluble αvβ3 to FGF-1 (integrin αvβ3) | αvβ3 binding (integrin αvβ3) | binding of soluble αvβ3 to the immobilized protein (integrin αvβ3; coated at 10 μg/ml, soluble αvβ3 5 μg/ml, 1 mM MnCl2) | binding of soluble αvβ3 to heat-denatured protein (integrin αvβ3; heat-denatured, heat-treated 10 min before immobilization) | tube formation by endothelial cells on matrigel [1] | effect on apoptosis induced by etoposide (M21 human melanoma cells) | FRS2α phosphorylation (FRS2α) | Wound healing (Balb 3T3 cells) | effect on migration of Balb3T3 cells in scratch wound healing assays (Balb 3T3 cells) |
| --- | --- | --- | --- | --- | --- | --- | --- | --- | --- | --- | --- |
| R50E: FGF-1 mutant with the Arg-50 to Glu (R50E) mutation | did not | Normal | blocked the binding; also recorded: effectively blocked | Low |  |  | block tube formation | enhanced apoptosis | abolished | Low | effectively blocked |
